In patent publication US20240109962A1 (SPARX BIOSCIENCE, published 2024):
Where two headings read alike, the source gives them in different places.

Tests used:
[1] = target: T1, human LILRB2 expressed on cells (293T-LILRB2, CHO-K1-LILRB2) (human, UniProt Q8N423 22-597); test: flow cytometry on 293T-LILRB2 cells, serial dilution, APC anti-human IgG; fit table under the graph
T1 construct: whole, on cells; the cell line is named under assay; also called HEK293T-LILRB2
From the text: (§1) The cells were washed and then subject to flow cytometry to measure levels of fluorescent signals.

[2] = target: T1, human LILRB2 expressed on cells …; test: flow cytometry, blockade of His-tagged HLA-G tetramer binding to 293T-LILRB2 cells; fit table under the graph
Protocol: (§2) Serial diluted humanized LILRB2 antibodies were then added to the mixture and incubated at room temperature for another 45 minutes. The binding of HLA-G/LILRB2 was detected afterwards using a secondary PE-labeled anti-His tag antibody via flow cytometry.

[3] = target: T1, human LILRB2 expressed on cells …; test: flow cytometry, blockade of His-tagged HLA-G tetramer binding to 293T-LILRB2 cells; fit table under the graph, row headed EC50
Protocol: as §2

[4] = target: T1, human LILRB2 expressed on cells …; test: flow cytometry on 293T-LILRB2 cells, serial dilution, APC anti-human IgG; fit table under the graph; remark: listed apart in the source
From the text: as §1

[5] = target: LILRB2 antigen of the ELISA of Table 5 (format not specified) (UniProt Q8N423 22-460, limits assumed); test: ELISA, antibody titration
[6] = target: T2, human LILRB1 expressed on 293T cells (human, UniProt Q8NHL6 24-650); test: cell ELISA, 293T-LILRB1 cells, antibody 2 ug/ml
T2 construct: whole, on cells
Protocol: (§3) The cells were then immobilized with glutaraldehyde in the presence of 5% defatted milk at room temperature for 2 hours. An anti-LILRB2 antibody (2 μg/ml) was added to each well and incubated at room temperature for 2 hours. An HRP-labelled goat anti-mouse secondary antibody was then added into each well and incubated at room temperature for one hour. An HRP substrate, o-phenylenediamine dihydrochloride (OPD) was then added to each well. The plate was incubated at room temperature for 15 min to allow color development and OD₄₉₀ values were determined.

[7] = target: T1, human LILRB2 expressed on cells …; test: cell ELISA, 293T-LILRB2 cells, antibody 2 ug/ml
Protocol: as §3

[8] = target: T3, human LILRB3 expressed on 293T cells (human, UniProt O75022 24-631); test: cell ELISA, 293T-LILRB3 cells, antibody 2 ug/ml
T3 construct: whole, on cells
Protocol: as §3

[9] = target: T2, human LILRB1 expressed on 293T cells; test: flow cytometry on 293T transfectants, MFI
Procedure, shortened: (§4)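 Cells fixed with glutaraldehyde in 5% defatted milk, RT 2 h, then stained with anti-LILRB2 antibody (5 μg/ml, RT 1 h) and Alexa Fluor goat anti-mouse secondary (1:2,000, RT 30′). After two PBS washes, mean fluorescence intensity was measured.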

[10] = target: T3, human LILRB3 expressed on 293T cells; test: flow cytometry on 293T transfectants, MFI
Procedure, shortened: as §4

LILRB2-Fc fusion protein = target: T4, LILRB2-Fc fusion protein (human, UniProt Q8N423 22-460, limits assumed); test: ELISA, blockade of LILRB2-Fc binding to coated His-ANGPTL2
T4 construct: not shown: Fc
Protocol: His-tagged ANGPTL2 protein (1 μg/ml) was placed in a 96-well plate ([…]) and incubated at 4° C. overnight. Afterwards, LILRB2-Fc fusion protein at 0.25 mg/ml was incubated with the anti-LILRB2 antibody at various concentrations at room temperature for one hour and then added into the His-ANGPTL2 coated plate. The plate was placed in a shaker at 500 rpm for 2 hours at room temperature. HRP-labelled goat anti-human Fc antibody (1:10,000 dilution) was added to the plate (100 μl/well). After incubation at room temperature for 1 hour, TMB was added for color development.
Clones 11B12, 9B6, 9H6, and 14F1 were selected for dose-dependent blockade assays. A mouse IgG (mIgG) antibody was used as a negative control. […] The IC₅₀ values are around 1 nM. […] (ix) Exemplary Anti-LILBR2 Antibodies Enhanced TNFα Expression and Suppressed IL-10 Expression in LPS-Stimulated PBMCs

LILRB1-His = target: T5, LILRB1-His; test: ELISA on recombinant His-tagged protein, OD450
T5 construct: also called His-tagged LILRB1; recombinant LILRB1 protein

LILRB3-His = target: T6, LILRB3-His; test: ELISA on recombinant His-tagged protein, OD450
T6 construct: also called His-tagged LILRB3; recombinant LILRB3 protein

[11] = target: T7, His-tagged human LILRB2 polypeptide (human, UniProt Q8N423 22-460); test: SPR, antibody on CM5 chip, His-LILRB2 analyte, 1:1 model
T7 construct: SPR analyte; also called His-tagged human LILBR2 polypeptide; not shown: His tag
Protocol: Surface plasmon resonance (SPR) was used to examine binding activities of exemplary anti-LILBR2 antibodies disclosed herein. Briefly, the anti-LILBR2 antibody was diluted in a coating buffer to a concentration of 30 μg/ml, loaded onto CM5 chips at 10 μl/min to allow coating of the antibody on the surface of the CM5 chip. […] Binding affinity was measured based on the 1:1 binding model.

[12] = target: T1, human LILRB2 expressed on cells …; test: flow cytometry, blockade of PE-HLA-G tetramer binding to 293T-huLILRB2 cells
Protocol: Pre-experimentation was performed to determine parameters for this assay. […] The cells were washed twice and then analysed by flow cytometry. […] FIG. 3C.
A mouse IgG (mIgG) antibody was used as a negative control.

[13] = target: T1, human LILRB2 expressed on cells …; test: flow cytometry, blockade of PE-HLA-A2 tetramer binding to CHO-K1-huLILRB2 cells
Protocol: Pre-experimentation was performed to determine parameters for this assay. PE-labelled HLA-A2 tetramer at the concentration of 0.25 μg/ml and an anti-LILRB2 antibody at the concentration of 2.5 μg/ml were incubated with CHO-K1-huLILRB2 cells for 10 minutes. The cells were washed twice and then analysed by flow cytometry. […] FIG. 3A.
Clones 11B12, 9B6, and 9H6 were selected for dose-dependent blockade assays against HLA-A2 from binding to CHO-K1-huLILRB2 cells. A mouse IgG (mIgG) antibody was used as a negative control.

[14] = target: T2, human LILRB1 expressed on 293T cells; test: cell ELISA on fixed 293T transfectants, OD490
Protocol: as §3

[15] = target: T3, human LILRB3 expressed on 293T cells; test: cell ELISA on fixed 293T transfectants, OD490
Protocol: as §3

T2 sequence (Q8NHL6 24-650): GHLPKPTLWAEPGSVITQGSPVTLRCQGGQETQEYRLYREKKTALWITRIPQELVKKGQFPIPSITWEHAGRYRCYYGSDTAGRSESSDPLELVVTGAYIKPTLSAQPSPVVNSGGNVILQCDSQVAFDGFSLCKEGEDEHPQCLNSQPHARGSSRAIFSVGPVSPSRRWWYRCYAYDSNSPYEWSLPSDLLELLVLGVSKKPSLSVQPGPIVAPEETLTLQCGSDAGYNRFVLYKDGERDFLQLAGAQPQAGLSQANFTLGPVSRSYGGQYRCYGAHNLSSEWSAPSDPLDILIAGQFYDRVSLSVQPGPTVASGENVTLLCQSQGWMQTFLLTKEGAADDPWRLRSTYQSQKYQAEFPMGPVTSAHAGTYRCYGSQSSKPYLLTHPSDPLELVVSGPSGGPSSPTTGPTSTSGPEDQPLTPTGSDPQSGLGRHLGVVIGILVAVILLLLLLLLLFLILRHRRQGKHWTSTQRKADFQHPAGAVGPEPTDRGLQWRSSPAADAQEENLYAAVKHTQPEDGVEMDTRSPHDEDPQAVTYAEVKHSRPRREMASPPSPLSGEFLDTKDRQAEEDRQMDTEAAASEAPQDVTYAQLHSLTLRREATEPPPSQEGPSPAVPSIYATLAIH
T4 sequence (Q8N423 22-460 limits assumed): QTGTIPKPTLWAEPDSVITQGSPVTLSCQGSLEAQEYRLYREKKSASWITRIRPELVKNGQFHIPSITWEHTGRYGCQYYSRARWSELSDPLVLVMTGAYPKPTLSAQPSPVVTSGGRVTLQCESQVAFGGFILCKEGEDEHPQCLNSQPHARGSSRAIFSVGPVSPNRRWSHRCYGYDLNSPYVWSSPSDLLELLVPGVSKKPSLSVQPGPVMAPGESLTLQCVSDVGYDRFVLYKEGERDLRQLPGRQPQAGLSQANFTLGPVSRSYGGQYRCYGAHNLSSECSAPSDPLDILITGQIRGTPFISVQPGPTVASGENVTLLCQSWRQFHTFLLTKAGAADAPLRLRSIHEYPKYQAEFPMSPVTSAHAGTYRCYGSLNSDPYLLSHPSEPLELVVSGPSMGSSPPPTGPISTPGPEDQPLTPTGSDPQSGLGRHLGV
T7 sequence (Q8N423 22-460 limits assumed): as above
Chain of LILRB2 antigen of the ELISA of Table 5 (format not specified) (Q8N423 22-460 limits assumed): as above
T1 sequence (Q8N423 22-597): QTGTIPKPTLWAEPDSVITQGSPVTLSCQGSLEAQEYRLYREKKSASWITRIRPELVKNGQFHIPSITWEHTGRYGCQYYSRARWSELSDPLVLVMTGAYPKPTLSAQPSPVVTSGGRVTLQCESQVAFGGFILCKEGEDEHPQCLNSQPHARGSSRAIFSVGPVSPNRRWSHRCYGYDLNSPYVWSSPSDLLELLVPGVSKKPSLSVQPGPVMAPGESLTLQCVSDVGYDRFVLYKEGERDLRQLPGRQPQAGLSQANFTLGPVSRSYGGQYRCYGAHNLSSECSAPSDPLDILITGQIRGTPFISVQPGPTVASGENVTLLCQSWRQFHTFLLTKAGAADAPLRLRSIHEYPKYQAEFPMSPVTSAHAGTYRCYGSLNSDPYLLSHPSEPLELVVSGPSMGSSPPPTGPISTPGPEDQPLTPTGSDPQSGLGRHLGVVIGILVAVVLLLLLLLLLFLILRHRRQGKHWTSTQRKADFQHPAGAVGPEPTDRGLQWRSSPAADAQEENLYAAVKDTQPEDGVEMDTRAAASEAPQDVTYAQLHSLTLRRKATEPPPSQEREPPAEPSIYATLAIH
T5 sequence (chain, as listed by the source limits assumed): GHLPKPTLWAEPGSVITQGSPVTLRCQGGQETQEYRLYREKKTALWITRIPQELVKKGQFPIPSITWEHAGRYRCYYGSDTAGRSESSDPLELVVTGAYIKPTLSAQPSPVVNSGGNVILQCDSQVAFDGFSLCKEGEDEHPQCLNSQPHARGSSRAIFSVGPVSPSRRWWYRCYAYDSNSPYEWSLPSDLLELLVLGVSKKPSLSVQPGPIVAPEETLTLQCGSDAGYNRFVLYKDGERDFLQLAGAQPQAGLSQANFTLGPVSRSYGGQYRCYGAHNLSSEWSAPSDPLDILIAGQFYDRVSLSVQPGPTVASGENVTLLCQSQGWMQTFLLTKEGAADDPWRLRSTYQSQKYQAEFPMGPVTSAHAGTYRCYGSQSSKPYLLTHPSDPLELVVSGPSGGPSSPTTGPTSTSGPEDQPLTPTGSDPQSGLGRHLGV

B1: Antibody h#2B1 (antibody, V domains shown)
VH: EVQLVESGGGLVQPGGSLRLSCAVSGYSITSGYYWNWIRQAPGKGLEWVAYISYDGNNNYNPSLKNRFTISRDASKNTVYLQMNSLRAEDTAVYYCAREESTMITTAWFAYWGQGTLVTVSS
VL: DIQMTQSPSSLSASVGDRVTITCRASENIYSNLAWYQQKPGKAPKLLIYGATNLASGVPSRFSGSGSGTDYTLTISSLQPEDFATYYCQHFWDTPYTFGQGTKVEIK
notes: Humanized variant of 11B12
Work on B1 yielded a Bmax [1] of 606000 RFU, a Kd [1] of 0.256 nM and a Span [2] of 8850 RFU. It also gave an EC50 [3] of 0.219 nM.

B2: Antibody h#2D2 (antibody, V domains shown)
VH: EVQLVESGGGLVQPGGSLRLSCAVSGYSITSGYYWNWIRQAPGKGLEWVAYISYDGNNNYNPSLKNRFTISRDASKNTFYLQMNSLRAEDTAVYYCAREESTMITTAWFAYWGQGTLVTVSS
VL: DIQMTQSPSSLSASVGDRVTITCRASENIYSNLAWYQQKPGKAPKLLIYGATNLASGVPSRFSGSGSGTDYTLTISSLQPEDFATYYCQHFWDTPYTFGQGTKVEIK
notes: Humanized variant of 11B12
Work on B2 yielded a Bmax [4] of 608000 RFU, a Kd [4] of 0.362 nM and a Span [2] of 7640 RFU. It also gave an EC50 [3] of 0.131 nM.

B3: Antibody h#2E2 (antibody, V domains shown)
VH: EVQLVESGGGLVQPGGSLRLSCAVSGYSITSGYYWNWIRQAPGKGLEWVAYISYDGNNNYNPSLKNRFTISRDTSKNTVYLQMNSLRAEDTAVYYCAREESTMITTAWFAYWGQGTLVTVSS
VL: DIQMTQSPSSLSASVGDRVTITCRASENIYSNLAWYQQKPGKAPKLLIYGATNLASGVPSRFSGSGSGTDYTLTISSLQPEDFATYYCQHFWDTPYTFGQGTKVEIK
notes: Humanized variant of 11B12
In the case of B3, the Bmax [1] is reported as 615000 RFU, the Kd [1] is reported as 0.317 nM and the Span [2] is reported as 8780 RFU. The EC50 [3] was 0.389 nM.

B4: Antibody 9H6 (antibody, V domains shown)
VH: EVQLQQSGAELVRPGALVKLSCKASGFNVKDYYMHWVKQRPEQGLEWIGWIDPKNGNGIYDPKFQGKASITADTSSNTAYLQLSSLTSEDTSVYYCARGDYFGSSYLFAYWGQGTLVTVSA
VL: DIVMTQSHKFMSTSVGDRVSITCKASQDVSTAVAWYQQKPGQSPKLLIYSASYRYTGVPDRFTGSGSGTDFTFTISSVQAEDLAVYYCQQHYSTPWTFGGGAKLEIK
notes: Mouse hybridoma mAb purified from ascites
With B4 the Kd [5] was 1.04 nM, the OD490 [6] was 0.177 OD490 and the OD490 [7] was 1.86 OD490. For the same binder, the OD490 [8] was 0.139 OD490, the binding result [9] was “no binding (tested: 5 µg/ml)” and the binding result [10] was “no binding (tested: 5 µg/ml)”. The IC50 (LILRB2-Fc fusion protein) was 0.945 nM, the binding result (LILRB1-His) was “no binding” and the binding result (LILRB3-His) was “no binding”. The Kd [11] was 0.0257 nM, the koff [11] was 4.72e-06 s⁻¹ and the kon [11] was 183000 M⁻¹ s⁻¹. The IC50 [12] was 3.12 nM and the IC50 [13] was 4.97 nM.

B5: Antibody 14F1 (antibody, V domains shown)
VH: QVQLKESGPGLVAPSQSLSITCTVSGFSLTTYGVHWVRQPPGKGLEWLGVIWTGGSTNYNSALMSRLSIIKDNSKSQVFLKMNSLQTDDTAIYYCARGGYGHTMDYWGQGTSVTVSS
VL: DIVMTQSHKFMSTSVGDRVSITCKASQDVSIAVAWYQQKPGQFPKLLIYSASYRYTGVPDRFTGGGSGTDFTFTISSVQAEDLAVYYCQQHYSTPFTFGSGTKLEIK
notes: as for B4
Work on B5 yielded a Kd [5] of 1.24 nM, an OD490 [6] of 0.172 OD490 and an OD490 [7] of 1.21 OD490. For the same binder, the OD490 [8] was 0.172 OD490, the binding result [9] was “no binding (tested: 5 µg/ml)” and the binding result [10] was “no binding (tested: 5 µg/ml)”. For the same binder, the IC50 (LILRB2-Fc fusion protein) was 0.942 nM, the binding result (LILRB1-His) was “no binding” and the binding result (LILRB3-His) was “no binding”. The IC50 [12] was 0.82 nM.

B6: Antibody 11B12 (antibody, V domains shown)
VH: DVQLQESGPGLVKPSQSLSLTCSVTGYSITSGYYWNWIRQFPGNKLEWMGYISYDGNNNYNPSLKNRISITRDTSKNQFFLKLNSVTTEDTATYYCAREESTMITTAWFAYWGQGTLVTVSA
VL: DIQMTQSPASLSVSVGETVTITCRASENIYSNLAWYQQKQGKSPQLLVYGATNLADGVPSRFSGSGSGTQYSLKINSLQSEDFGSYFCQHFWDTPYTFGGGTKLEIK
notes: as for B4
B6 was tested, and the Kd [5] was 3.2 nM, the binding result [14] was “no binding (tested: 2 µg/ml)” and the binding result [15] was “no binding (tested: 2 µg/ml)”. The IC50 (LILRB2-Fc fusion protein) was 1 nM, the binding result (LILRB3-His) was “no binding” and the Kd [11] was 0.353 nM. It also gave a koff [11] of 0.00032 s⁻¹, a kon [11] of 905000 M⁻¹ s⁻¹ and an IC50 [12] of 0.857 nM. The IC50 [13] was 0.475 nM.

B7: Antibody 9B6 (antibody, V domains shown)
VH: DVQLVESGGGLVQPGWSRILSCAASGFTFSNFGMHWVRQAPEKGLEWVAYISSGSGTIYYSDTVRGRFTISRDNPKNTLFLLMTSLRSEDTAMYYCTRSDYDGDWFFDVWGAGTTVTVSS
VL: DIVMTQSHRFLSTSVGDRVTITCKASQDVTTAVAWCQQKPGQSPKLLIYSASFRYTGVPDRFTGSGSGTDFTFTINNVQAEDLALYYCQQHFTTPLTFGAGTKLELK
notes: as for B4
Binder B7 has a Kd [5] of 0.943 nM, an OD490 [6] of 0.121 OD490 and an OD490 [7] of 1.43 OD490. For the same binder, the OD490 [8] was 0.126 OD490, the binding result [9] was “no binding (tested: 5 µg/ml)” and the binding result [10] was “no binding (tested: 5 µg/ml)”. The IC50 (LILRB2-Fc fusion protein) was 1.01 nM, the binding result (LILRB1-His) was “no binding” and the binding result (LILRB3-His) was “no binding”. The Kd [11] was 1.07 nM, the koff [11] was 0.000864 s⁻¹ and the kon [11] was 809000 M⁻¹ s⁻¹. For the same binder, the IC50 [12] was 0.618 nM and the IC50 [13] was 0.34 nM.
